± gives the standard deviation of the averaged measurements.
Assay: total protein half-life in vivo (active degradation + dilution); higher = more stable protein
[1] = E. coli NCM3722 delta-clpP delta-lon delta-hslV, growth: N-lim chemostat, doubling time 6 h
[2] = E. coli NCM3722 delta-clpP, growth: N-lim chemostat, doubling time 6 h
[3] = E. coli NCM3722 delta-hslV, growth: N-lim chemostat, doubling time 6 h
[4] = E. coli NCM3722 delta-lon, growth: N-lim chemostat, doubling time 6 h
[5] = E. coli NCM3722 delta-smpB, growth: N-lim chemostat, doubling time 6 h
[6] = wild type E. coli NCM3722, growth: C-lim chemostat, doubling time 3 h
[7] = wild type E. coli NCM3722, growth: C-lim chemostat, doubling time 6 h
[8] = wild type E. coli NCM3722, growth: C-lim chemostat, doubling time 12 h
[9] = wild type E. coli NCM3722, growth: N-lim chemostat, doubling time 6 h
[10] = wild type E. coli NCM3722, growth: N-lim chemostat, doubling time 12 h
[11] = wild type E. coli NCM3722, growth: P-lim chemostat, doubling time 6 h
[12] = wild type E. coli NCM3722, growth: P-lim chemostat, doubling time 12 h

| Sequence | total protein half-life in vivo [1] | total protein half-life in vivo [2] | total protein half-life in vivo [3] | total protein half-life in vivo [4] | total protein half-life in vivo [5] | total protein half-life in vivo [6] | total protein half-life in vivo [7] | total protein half-life in vivo [8] | total protein half-life in vivo [9] | total protein half-life in vivo [10] | total protein half-life in vivo [11] | total protein half-life in vivo [12] |
| --- | --- | --- | --- | --- | --- | --- | --- | --- | --- | --- | --- | --- |
| MTNPLLTPFELPPFSKILPEHVVPAVTKALNDCRENVERVVAQGAPYTWENLCQPLAEVDDVLGRIFSPVSHLNSVKNSPELREAYEQTLPLLSEYSTWVGQHEGLYKAYRDLRDGDHYATLNTAQKKAVDNALRDFELSGIGLPKEKQQRYGEIATRLSELGNQYSNNVLDATMGWTKLVTDEAELAGMPESALAAAKAQAEAKELEGYLLTLDIPSYLPVMTYCDNQALREEMYRAYSTRASDQGPNAGKWDNSKVMEEILALRHELAQLLGFENYAFKSLATKMAENPQQVLDFLTDLAKRARPQGEKELAQLRAFAKAEFGVDELQPWDIAYYSEKQKQHLYSISDEQLRPYFPENKAVNGLFEVVKRIYGITAKERKDVDVWHPDVRFFELYDENNELRGSFYLDLYARENKRGGAWMDDCVGQMRKADGSLQKPVAYLTCNFNRPVNGKPALFTHDEVITLFHEFGHGLHHMLTRIETAGVSGISGVPWDAVELPSQFMENWCWEPEALAFISGHYETGEPLPKELLDKMLAAKNYQAALFILRQLEFGLFDFRLHAEFRPDQGAKILETLAEIKKLVAVVPSPSWGRFPHAFSHIFAGGYAAGYYSYLWADVLAADAFSRFEEEGIFNRETGQSFLDNILSRGGSEEPMDLFKRFRGREPQLDAMLEHYGIKG | 4.42 ± 0.21 h | 4.18 ± 0.052 h | 4.03 ± 0.15 h | 3.74 ± 0.18 h | 3.55 ± 0.062 h | 2.795 ± 0.023 h | 5.17 ± 0.21 h | 8.7 ± 0.94 h | 3.68 ± 0.23 h | 5.67 ± 0.55 h | 5.1797 ± 0.00065 h | 9.96 ± 1.1 h |
| MTNRISRLKTALFANTREISLERALLYTASHRQTEGEPVILRRAKATAYILEHVEISIRDEELIAGNRTVKPRAGIMSPEMDPYWLLKELDQFPTRPQDRFAISEEDKRIYREELFPYWEKRSMKDFINGQMTDEVKAATNTQIFSINQTDKGQGHIIIDYPRLLNHGLGELVAQMQQHCQQQPENHFYQAALLLLEASQKHILRYAELAETMAANCTDAQRREELLTIAEISRHNAQHKPQTFWQACQLFWYMNIILQYESNASSLSLGRFDQYMLPFYQTSLTQGEDAAFLKELLESLWVKCNDIVLLRSTSSARYFAGFPTGYTALLGGLTENGRSAVNVLSFLCLDAYQSVQLPQPNLGVRTNALIDTPFLMKTAETIRFGTGIPQIFNDEVVVPAFLNRGVSLEDARDYSVVGCVELSIPGRTYGLHDIAMFNLLKVMEICLHENEGNAALTYEGLLEQIRAKISHYITLMVEGSNICDIGHRDWAPVPLLSSFISDCLEKGRDITDGGARYNFSGVQGIGIANLSDSLHALKGMVFEQQRLSFDELLSVLKANFATPEGEKVRARLINRFEKYGNDIDEVDNISAELLRHYCKEVEKYQNPRGGYFTPGSYTVSAHVPLGSVVGATPDGRFAGEQLADGGLSPMLGQDAQGPTAVLKSVSKLDNTLLSNGTLLNVKFTPATLEGEAGLRKLADFLRAFTQLKLQHIQFNVVNADTLREAQQRPQDYAGLVVRVAGYSAFFVELSKEIQDDIIRRTAHQL | 5.49 ± 0.94 h | 3.15 ± 0.29 h |  |  |  |  |  |  |  |  |  |  |
| MTNSNRIKLTWISFLSYALTGALVIVTGMVMGNIADYFNLPVSSMSNTFTFLNAGILISIFLNAWLMEIVPLKTQLRFGFLLMVLAVAGLMFSHSLALFSAAMFILGVVSGITMSIGTFLVTQMYEGRQRGSRLLFTDSFFSMAGMIFPMIAAFLLARSIEWYWVYACIGLVYVAIFILTFGCEFPALGKHAPKTDAPVEKEKWGIGVLFLSVAALCYILGQLGFISWVPEYAKGLGMSLNDAGTLVSNFWMSYMVGMWAFSFILRFFDLQRILTVLAGLAAILMYVFNTGTPAHMAWSILALGFFSSAIYTTIITLGSQQTKVPSPKLVNFVLTCGTIGTMLTFVVTGPIVEHSGPQAALLTANGLYAVVFVMCFLLGFVSRHRQHNTLTSH | 5.5 h | 5.55 h | 5.855 ± 0.027 h | 5.47 ± 0.58 h | 5.72 ± 0.19 h |  |  |  | 6.5 ± 0.71 h |  | 6.42 ± 1.5 h | 13.3 h |
| MTNYRVESSSGRAARKMRLALMGPAFIAAIGYIDPGNFATNIQAGASFGYQLLWVVVWANLMAMLIQILSAKLGIATGKNLAEQIRDHYPRPVVWFYWVQAEIIAMATDLAEFIGAAIGFKLILGVSLLQGAVLTGIATFLILMLQRRGQKPLEKVIGGLLLFVAAAYIVELIFSQPNLAQLGKGMVIPSLPTSEAVFLAAGVLGATIMPHVIYLHSSLTQHLHGGSRQQRYSATKWDVAIAMTIAGFVNLAMMATAAAAFHFSGHTGVADLDEAYLTLQPLLSHAAATVFGLSLVAAGLSSTVVGTLAGQVVMQGFIRFHIPLWVRRTVTMLPSFIVILMGLDPTRILVMSQVLLSFGIALALVPLLIFTSDSKLMGDLVNSKRVKQTGWVIVVLVVALNIWLLVGTALGL [P0A769] | 2.46 h | 3.02 h | 2.87 h |  | 2.15 ± 0.48 h | 1.29 h |  | 3.66 h | 2.23 ± 1.2 h | 3.65 ± 1.2 h | 2.19 h |  |
| MTPLVKDIIMSSTRMPALFLGHGSPMNVLEDNLYTRSWQKLGMTLPRPQAIVVVSAHWFTRGTGVTAMETPPTIHDFGGFPQALYDTHYPAPGSPALAQRLVELLAPIPVTLDKEAWGFDHGSWGVLIKMYPDADIPMVQLSIDSSKPAAWHFEMGRKLAALRDEGIMLVASGNVVHNLRTVKWHGDSSPYPWATSFNEYVKANLTWQGPVEQHPLVNYLDHEGGTLSNPTPEHYLPLLYVLGAWDGQEPITIPVEGIEMGSLSMLSVQIG |  | 3.18 h |  |  |  | 2.85 h | 5.76 h | 11.3 h | 3.76 h |  | 5.45 h | 10.5 ± 0.65 h |
| MTPWFLYLIRTADNKLYTGITTDVERRYQQHQSGKGAKALRGKGELTLVFSAPVGDRSLALRAEYRVKQLTKRQKERLVAEGAGFAELLSSLQTPEIKSD | 6.282 ± 0.0083 h |  |  |  |  |  |  |  |  |  | 1.75 h |  |
| MTQANLSETLFKPRFKHPETSTLVRRFNHGAQPPVQSALDGKTIPHWYRMINRLMWIWRGIDPREILDVQARIVMSDAERTDDDLYDTVIGYRGGNWIYEWATQAMVWQQKACAEDDPQLSGRHWLHAATLYNIAAYPHLKGDDLAEQAQALSNRAYEEAAQRLPGTMRQMEFTVPGGAPITGFLHMPKGDGPFPTVLMCGGLDAMQTDYYSLYERYFAPRGIAMLTIDMPSVGFSSKWKLTQDSSLLHQHVLKALPNVPWVDHTRVAAFGFRFGANVAVRLAYLESPRLKAVACLGPVVHTLLSDFKCQQQVPEMYLDVLASRLGMHDASDEALRVELNRYSLKVQGLLGRRCPTPMLSGYWKNDPFSPEEDSRLITSSSADGKLLEIPFNPVYRNFDKGLQEITDWIEKRLC | 5.5 ± 0.92 h | 5.97 ± 1.6 h | 3.64 ± 0.2 h | 3.85 ± 0.3 h | 3.78 ± 0.053 h | 2.32 ± 0.07 h | 3.76 ± 0.11 h | 4.98 ± 0.59 h | 3.52 ± 0.098 h | 5.5 ± 0.077 h | 4.41 ± 0.33 h | 7.49 ± 0.46 h |
